This is an account of results in US20240016931A1 (JIANGSU HENGRUI PHARMACEUTICALS, published 2024).

Substitutions are numbered along the chain they refer to.

This test deals with T1, Fc-tagged human TSLP antigen (huTSLP-Fc) (human, biotin-labeled in the blocking assays).
T1 construct: whole entry named; also called recombinant human TSLP-Fc
Put plainly: competition ELISA: blocks TSLP binding to TSLP receptor.

B1: hu199-13 (antibody, human IgG1, kappa, V domains shown)
VH: EVQLVQSGAEVKKPGASVKVSCKASGYTFTTYWMHWVRQAPGQGLEWIGMIDPSDSETTLIQKFKDRATLTVDKSTSTAYMELSSLRSEDTAVYYCARTLDGYYDYWGQGTTVTVSS
VL: DIQMTQSPSSLSASVGDRVTITCRASENIYSYLAWYQQKPGKAPKLLIYFAKTLAEGVPSRFSGSGSGTDFTLTISSLQPEDFATYYCQHHYGTPWTFGGGTKVEIKR
notes: IgG1-YTE, kappa
Consider B1, for which the 50% inhibitory concentration (IC50) (in general, the concentration that gives 50% inhibition) amounted to 0.239 nM.

B2: hu199-26 (antibody, human IgG1, kappa, V domains shown)
VH: B1 VH with R38K, I48M, R67K, A68V, L70M
VL: B1 VL with I48V
notes: IgG1-YTE, kappa
As to B2, the IC50 was 0.365 nM.

B3: hu199-19 (antibody, human IgG1, kappa, V domains shown)
VH: B1 VH with R38K, R67K
VL: B1 VL
notes: IgG1-YTE, kappa
In turn, B3 gave an IC50 of 0.658 nM.

B4: hu199-24 (antibody, human IgG1, kappa, V domains shown)
VH: B1 VH with R38K, R67K
VL: B1 VL with A43S, K45Q, I48V, G66V, D70Q
notes: IgG1-YTE, kappa
Molecule B4 showed a half-inhibitory concentration (IC50) of 0.496 nM.

B5: hu199-27 (antibody, human IgG1, kappa, V domains shown)
VH: B1 VH with R38K, I48M, R67K, A68V, L70M
VL: B1 VL with A43S, K45Q, I48V, D70Q
notes: IgG1-YTE, kappa
As for B5, the half-maximal inhibitory concentration (IC50) amounted to 0.354 nM.

B6: hu199-29 (antibody, human IgG1, kappa, V domains shown)
VH: B1 VH with R38K, I48M, R67K, A68V, L70M
VL: B1 VL with I48V, G66V
notes: IgG1-YTE, kappa
In the case of B6, the IC50 amounted to 0.554 nM.

B7: hu199-18 (antibody, human IgG1, kappa, V domains shown)
VH: B1 VH
VL: B1 VL with A43S, K45Q, I48V, G66V, D70Q
notes: IgG1-YTE, kappa
B7 came in with an IC50 of 0.481 nM.

B8: hu199-20 (antibody, human IgG1, kappa, V domains shown)
VH: B1 VH with R38K, R67K
VL: B1 VL with I48V
notes: IgG1-YTE, kappa
Molecule B8 came in with a 50% inhibitory concentration (IC50) of 0.4 nM.

B9: hu199-28 (antibody, human IgG1, kappa, V domains shown)
VH: B1 VH with R38K, I48M, R67K, A68V, L70M
VL: B1 VL with G66V
notes: IgG1-YTE, kappa
As for B9, the half-inhibitory concentration (IC50) was 0.462 nM.

B10: hu199-23 (antibody, human IgG1, kappa, V domains shown)
VH: B1 VH with R38K, R67K
VL: B1 VL with I48V, G66V
notes: IgG1-YTE, kappa
The molecule B10 yielded an IC50 of 0.337 nM.

B11: hu199-21 (antibody, human IgG1, kappa, V domains shown)
VH: B1 VH with R38K, R67K
VL: B1 VL with A43S, K45Q, I48V, D70Q
notes: IgG1-YTE, kappa
Consider B11, for which the half-maximal inhibitory concentration (IC50) amounted to 0.535 nM.

B12: hu199-16 (antibody, human IgG1, kappa, V domains shown)
VH: B1 VH
VL: B1 VL with G66V
notes: IgG1-YTE, kappa
As for B12, the IC50 is 0.737 nM.

B13: hu199-22 (antibody, human IgG1, kappa, V domains shown)
VH: B1 VH with R38K, R67K
VL: B1 VL with G66V
notes: IgG1-YTE, kappa
B13 yielded an IC50 of 0.345 nM.

B14: hu199-17 (antibody, human IgG1, kappa, V domains shown)
VH: B1 VH
VL: B1 VL with I48V, G66V
notes: IgG1-YTE, kappa
Molecule B14 displayed a 50% inhibitory concentration (IC50) of 0.611 nM.

B15: hu199-14 (antibody, human IgG1, kappa, V domains shown)
VH: B1 VH
VL: B1 VL with I48V
notes: IgG1-YTE, kappa
B15: the IC50 was found to be 0.311 nM.

B16: hu199-25 (antibody, human IgG1, kappa, V domains shown)
VH: B1 VH with R38K, I48M, R67K, A68V, L70M
VL: B1 VL
notes: IgG1-YTE, kappa
Regarding B16, the 50% inhibitory concentration (IC50) was determined as 0.246 nM.

B17: hu199-15 (antibody, human IgG1, kappa, V domains shown)
VH: B1 VH
VL: B1 VL with A43S, K45Q, I48V, D70Q
notes: IgG1-YTE, kappa
B17 registered an IC50 of 0.287 nM.
